{
  "source": "patent US20240190947A1",
  "about": "(BIO TECHNE, published 2024)",
  "binders": {"B1": {"name": "70009-2 VHH clone (VHH)", "VHH": "QLQLVESGGGLVQPGGSLRLSCAASTLTLNSYAIGWFRQAPGKEREAVSCTSSSGDMTYYTNSVKGRFTISRDNAKNTVYLQMSRLKPDDTAVYYCAAVLLEYGYVCSHPNEYDYWGQGTQVTVSS"}},
  "molecular_target": "T1, SARS-CoV-2 S1 RBD His-tagged protein (SARS-CoV-2, UniProt P0DTC2 319-541)",
  "T1 construct": "domain: S1 RBD; also called rSARS-CoV-2 S1 RBD; SARS-CoV2 RBD",
  "experiment": "direct ELISA, HEK293 transfection medium",
  "data": [
    {"binder": "B1", "values": [
      {"measurement": "binding result", "result": "binds"}
    ]}
  ]
}
